Columns and labels:
[1] = target: α-D-fructofuranosidase and difructose dianhydride I synthase/hydrolase from Bifidobacterium dentium (Bifidobacterium dentium JCM 1195); experiment: crystal structure; sitting drop vapor diffusion at 20 °C, 10 mg/ml αFFase1 in 5 mM Na acetate pH 6.0, reservoir 20% PEG 3350 and 0.2 M disodium tartrate; ligand-free and cocrystals with D-fructose or D-arabinose; hexamer in the asymmetric unit
[2] = target: α-D-fructofuranosidase and difructose dianhydride I synthase/hydrolase from Bifidobacterium dentium (Bifidobacterium dentium JCM 1195); experiment: SEC; size-exclusion chromatography of the purified protein; conditions of this analysis not told (the purification used Hiload 16/60 Superdex 200 pg in 25 mM Tris HCl pH 7.0, 300 mM NaCl)

stoichiometry N [1]: 6 | stoichiometry N [2]: 6
Substance: α-D-fructofuranosidase and difructose dianhydride I synthase/hydrolase from Bifidobacterium dentium (enzyme)
